Test results reported in article PMC6824681, “Phosphoproteomics reveals that the hVPS34 regulated SGK3 kinase specifically phosphorylates endosomal proteins including Syntaxin-7, Syntaxin-12, RFIP4 and WDR44” (Biochemical Journal, 2019).

T1: GFP-STX12 wild type (Syntaxin-12) (human, UniProt Q86Y82 1-276)
T1 construct: Syntaxin-12 (STX12), human; After IGF1 stimulation about 20% of the stably expressed protein was phosphorylated (Ser139) by phos-tag analysis; also called GFP-STX12 WT; wild-type STX12
T1 sequence (looked up): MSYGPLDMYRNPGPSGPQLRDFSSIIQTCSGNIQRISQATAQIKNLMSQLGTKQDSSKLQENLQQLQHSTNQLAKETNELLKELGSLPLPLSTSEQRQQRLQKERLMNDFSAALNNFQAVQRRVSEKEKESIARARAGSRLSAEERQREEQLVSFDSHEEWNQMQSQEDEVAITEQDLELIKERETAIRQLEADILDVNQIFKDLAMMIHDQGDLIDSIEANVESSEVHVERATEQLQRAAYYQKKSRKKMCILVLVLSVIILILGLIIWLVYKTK

B1: Syntaxin 6 (STX6) (natural protein, human (endogenous in HEK293), UniProt O43752 1-255, looked up)
chain: MSMEDPFFVVKGEVQKAVNTAQGLFQRWTELLQDPSTATREEIDWTTNELRNNLRSIEWDLEDLDETISIVEANPRKFNLDATELSIRKAFITSTRQVVRDMKDQMSTSSVQALAERKNRQALLGDSGSQNWSTGTTDKYGRLDRELQRANSHFIEEQQAQQQLIVEQQDEQLELVSGSIGVLKNMSQRIGGELEEQAVMLEDFSHELESTQSRLDNVMKKLAKVSHMTSDRRQWCAIAILFAVLLVVLILFLVL
notes: Syntaxin-6 (STX6), endogenous in HEK293 cells, detected by immunoblot with anti-STX6; source: endogenous, HEK293 lysate
B2: VAMP4 (natural protein, human (endogenous in HEK293), UniProt O75379 1-141, looked up)
chain: MPPKFKRHLNDDDVTGSVKSERRNLLEDDSDEEEDFFLRGPSGPRFGPRNDKIKHVQNQVDEVIDVMQENITKVIERGERLDELQDKSESLSDNATAFSNRSKQLRRQMWWRGCKIKAIMALVAAILLLVIIILIVMKYRT
notes: VAMP4, endogenous in HEK293 cells, detected by immunoblot with anti-VAMP4; also called v-SNARE protein VAMP4; source: endogenous, HEK293 lysate
B3: VTI1A (natural protein, human (endogenous in HEK293), UniProt Q96AJ9 1-217, looked up)
chain: MSSDFEGYEQDFAVLTAEITSKIARVPRLPPDEKKQMVANVEKQLEEAKELLEQMDLEVREIPPQSRGMYSNRMRSYKQEMGKLETDFKRSRIAYSDEVRNELLGDDGNSSENQRAHLLDNTERLERSSRRLEAGYQIAVETEQIGQEMLENLSHDREKIQRARERLRETDANLGKSSRILTGMLRRIIQNRILLVILGIIVVITILMAITFSVRRH
notes: Vti1a (VTI1A), endogenous in HEK293 cells, detected by immunoblot with anti-VTI1A; source: endogenous, HEK293 lysate

Target: T1, GFP-STX12 wild type (Syntaxin-12)
Test: co-IP; GFP-STX12 WT or S139A immunoprecipitated from 2 mg lysate with GFP-Trap beads, 4°C, 4 h; two washes with lysis buffer with 0.45 M NaCl, one with 0.15 M NaCl; immunoblot of endogenous partners; cells serum-starved overnight, ± 14H (1 µM, 1 h), ± IGF1 (50 ng/ml, 15 min)
Conditions: partners not purified

Fold increase of the amount co-immunoprecipitated, IGF1-stimulated against unstimulated cells, ~2 fold:
B1
B2
B3
